# B1: anti-SEMA4D/MAb 67: anti-SEMA4D monoclonal antibody, VH SEQ ID NO: 9 and VL SEQ ID NO: 10 (antibody, V domains shown)
# VH: QVQLQQSGPELVKPGASVKISCKASGYSFSDYYMHWVKQSPENSLEWIGQINPTTGGASYNQKFKGKATLTVDKSSSTAYMQLKSLTSEESAVYYCTRYYYGRHFDVWGQGTTVTVSS
# VL: DIVMTQSPASLAVSLGQRATISCKASQSVDYDGDSYMNWYQQKPGQPPKLLIYAASNLESGIPARFSGSGSGTDFTLNIHPVEEEDAATYYCQQSNEDPYTFGGGTKLEIK
# modifications: Mab 67 VH; Mab 67 VL
# What was measured:
# Format in all cases: in vivo, Balb/c mice
# [1] = test system: Colon26 cells; assay: Example 2: Colon26 subcutaneous tumor mouse model, ENT and anti-SEMA4D MAb
# Experimental: Colon26 cells (500,000 cells) were implanted subcutaneously into Balb/c mice. […] Statistical significance was determined using 2-way ANOVA, Mantel Cox Log Rank test, and Fisher's exact test, respectively. Prism reports results as non-significant (ns) at P>0.05, significant (symbolized by “*”) at 0.01<P≤0.05, very significant (“**”) at 0.001<P≤0.01, and extremely significant (“***”) at P≤0.001.
# [2] = test system: Colon26 cells; assay: Example 1: Colon26 subcutaneous tumor mouse model, ENT and anti-SEMA4D MAb; details: MAb 67 10 mg/kg ip weekly x5 from day 2, ENT 20 mg/kg 3x/week x2 weeks from tumor volume ~300 mm^3, FIG. 2A
# Experimental: Colon26 cells (500,000 cells) were implanted subcutaneously into Balb/c mice. […] Kaplan-Meier survival analysis was performed to assess survival function, change in tumor volume was measured to determine tumor growth rates, and frequency of complete tumor regression was evaluated by determining the percentage of tumor-free mice. Percent complete regression (% CR) was also stratified by tumors that exceeded at least 100 mm^3 before regressing. Statistical significance was determined using Mantel Cox Log Rank test for survival, 2-way ANOVA for tumor volume, and Fisher's exact test for CR. Prism reports results as non-significant (ns) at P>0.05, significant (symbolized by “*”) at 0.01<P≤0.05, very significant (“**”) at 0.001<P≤0.01, extremely significant (“***”) at P≤0.001, and highest significance (“****”) at P≤0.0001.
# [3] = test system: Colon26 cells; assay: Example 3: Colon26 subcutaneous tumor mouse model, AZA and anti-SEMA4D MAb; details: MAb 67 10 mg/kg ip weekly x4 from day 2, AZA 0.8 mg/kg 3x/week x4 doses from tumor volume ~200 mm^3, FIG. 5A
# Experimental: Colon26 cells (500,000 cells) were implanted subcutaneously into Balb/c mice.
# Kaplan-Meier survival analysis was performed to assess survival function, change in tumor volume was measured to determine tumor growth rates, and frequency of complete tumor regression was evaluated by determining the percentage of tumor-free mice.
Molecule,frequency of complete tumor regression ([1]; Fisher's exact test) [%],maximal tumor growth delay (TGD) [2] [%],"maximal tumor growth delay (TGD) ([1]; MAb 67 10 mg/kg weekly x5 from day 2, ENT 20 mg/kg 3x/week x2 weeks from tumor volume ~250 mm^3, FIG. 3A) [%]",maximal tumor growth delay (TGD) [3] [%]
"Nc1ccccc1NC(=O)c1ccc(CNC(=O)OCc2cccnc2)cc1 [ENT, pyridin-3-ylmethyl N-[[4-[(2-aminophenyl)carbamoyl]phenyl]methyl] carbamate, reference compound]",25,214,–,–
B1,–,107,119,119

# — patent US11572408B2, “Treatment of cancer with a semaphorin-4D antibody in combination with an epigenetic modulating agent” (Vaccinex, Inc., priority 2017, dated 2023)
